In publication PMC9482650, “Quantitative fragmentomics allow affinity mapping of interactomes” (Nature Communications, 2022):

Key:
Test in all cases: holdup assay
Design in all cases: key: below the threshold = too weak to quantify, mostly under pKd 3.1 to 4
ARHGEF12, Q9NZN5-2 = biological target: ARHGEF12, Q9NZN5-2
CARD11, Q9BXL7 = biological target: T1, CARD11, Q9BXL7
T1 sequence (Q9BXL7 662-765, limits assumed, looked up): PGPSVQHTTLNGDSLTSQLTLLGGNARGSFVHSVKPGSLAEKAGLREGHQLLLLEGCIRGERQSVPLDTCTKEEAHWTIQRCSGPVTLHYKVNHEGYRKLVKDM

CASK, O14936 = biological target: CASK, O14936
CASK, O14936, sequence (O14936 487-570): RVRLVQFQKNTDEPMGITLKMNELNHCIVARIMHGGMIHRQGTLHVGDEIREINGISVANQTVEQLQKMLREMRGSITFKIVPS

DFNB31_2, Q9P202 = biological target: T2, DFNB31_2, Q9P202
T2 sequence (Q9P202 274-371, limits assumed, looked up): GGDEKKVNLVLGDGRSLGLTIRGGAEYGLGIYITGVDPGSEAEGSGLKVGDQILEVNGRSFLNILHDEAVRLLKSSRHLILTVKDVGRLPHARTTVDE

DLG1_1, Q12959 = biological target: DLG1_1, Q12959
DLG3_2, Q92796 = biological target: T3, DLG3_2, Q92796
T3 sequence (Q92796 221-321, limits assumed, looked up): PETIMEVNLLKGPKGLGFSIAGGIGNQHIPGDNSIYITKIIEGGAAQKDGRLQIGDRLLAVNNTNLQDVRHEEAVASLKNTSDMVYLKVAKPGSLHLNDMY

DLG4_2, P78352 = biological target: DLG4_2, P78352
DLG4_2, P78352, sequence (P78352 155-259): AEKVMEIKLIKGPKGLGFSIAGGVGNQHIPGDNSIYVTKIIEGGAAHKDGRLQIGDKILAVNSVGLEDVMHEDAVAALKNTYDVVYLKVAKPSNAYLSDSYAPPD

FRMPD2_3, Q68DX3 = biological target: FRMPD2_3, Q68DX3
FRMPD2_3, Q68DX3, sequence (Q68DX3 1073-1166): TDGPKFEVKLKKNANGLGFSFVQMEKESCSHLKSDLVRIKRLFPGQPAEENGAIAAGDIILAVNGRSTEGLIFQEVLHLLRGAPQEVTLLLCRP

GRID2IP_1, A4D2P6 = biological target: GRID2IP_1, A4D2P6
GRID2IP_1, A4D2P6, sequence (A4D2P6 1-87): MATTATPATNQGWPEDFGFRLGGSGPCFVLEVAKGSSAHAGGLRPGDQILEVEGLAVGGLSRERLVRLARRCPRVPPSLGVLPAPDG

GRIP1_2, Q9Y3R0 = biological target: T4, GRIP1_2, Q9Y3R0
T4 sequence (Q9Y3R0 145-248, limits assumed, looked up): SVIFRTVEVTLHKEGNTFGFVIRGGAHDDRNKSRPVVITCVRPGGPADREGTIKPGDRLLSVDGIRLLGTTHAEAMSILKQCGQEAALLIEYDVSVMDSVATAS

GRIP1_5, Q9Y3R0 = biological target: T5, GRIP1_5, Q9Y3R0
T5 sequence (Q9Y3R0 568-668, limits assumed, looked up): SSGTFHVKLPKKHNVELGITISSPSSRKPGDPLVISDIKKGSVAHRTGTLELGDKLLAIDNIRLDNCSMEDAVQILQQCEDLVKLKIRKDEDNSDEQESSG

Inadl_1, Q8NI35 = biological target: Inadl_1, Q8NI35
Inadl_1, Q8NI35, sequence (Q8NI35 113-229): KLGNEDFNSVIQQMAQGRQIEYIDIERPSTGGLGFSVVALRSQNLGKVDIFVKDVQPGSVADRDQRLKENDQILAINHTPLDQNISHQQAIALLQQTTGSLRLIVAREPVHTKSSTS

Inadl_5, Q8NI35 = biological target: Inadl_5, Q8NI35
Inadl_5, Q8NI35, sequence (Q8NI35 673-780): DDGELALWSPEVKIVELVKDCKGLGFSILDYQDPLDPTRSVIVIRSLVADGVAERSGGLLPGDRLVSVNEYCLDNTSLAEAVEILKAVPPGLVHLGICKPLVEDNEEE

LNX2_2, Q8N448 = biological target: T6, LNX2_2, Q8N448
T6 sequence (Q8N448 334-432, limits assumed, looked up): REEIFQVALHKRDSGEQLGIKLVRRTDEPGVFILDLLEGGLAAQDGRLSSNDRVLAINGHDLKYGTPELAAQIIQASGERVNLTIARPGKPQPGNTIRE

MAGI1_1, Q96QZ7 = biological target: MAGI1_1, Q96QZ7
MAGI1_1, Q96QZ7, sequence (Q96QZ7 1-106): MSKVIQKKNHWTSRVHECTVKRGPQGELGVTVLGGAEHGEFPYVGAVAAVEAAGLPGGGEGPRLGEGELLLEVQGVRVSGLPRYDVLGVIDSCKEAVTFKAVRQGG

MAGI2_2, Q86UL8 = biological target: MAGI2_2, Q86UL8
MAGI2_2, Q86UL8, sequence (Q86UL8 410-522): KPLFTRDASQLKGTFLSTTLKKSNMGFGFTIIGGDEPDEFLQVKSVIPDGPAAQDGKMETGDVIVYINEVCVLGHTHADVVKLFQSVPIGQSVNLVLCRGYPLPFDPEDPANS

MAGI2_4, Q86UL8 = biological target: MAGI2_4, Q86UL8
MAGI2_4, Q86UL8, sequence (Q86UL8 772-865): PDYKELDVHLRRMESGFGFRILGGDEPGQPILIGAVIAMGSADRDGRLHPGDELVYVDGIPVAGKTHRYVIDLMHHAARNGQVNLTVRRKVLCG

MAGI3_2, Q5TCQ9 = biological target: MAGI3_2, Q5TCQ9
MAGI3_2, Q5TCQ9, sequence (Q5TCQ9 398-503): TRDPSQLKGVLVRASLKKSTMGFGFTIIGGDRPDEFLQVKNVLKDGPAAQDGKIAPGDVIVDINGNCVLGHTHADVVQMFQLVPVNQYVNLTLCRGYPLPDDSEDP

MPP7, Q5T2T1 = biological target: T7, MPP7, Q5T2T1
T7 sequence (Q5T2T1 134-230, limits assumed, looked up): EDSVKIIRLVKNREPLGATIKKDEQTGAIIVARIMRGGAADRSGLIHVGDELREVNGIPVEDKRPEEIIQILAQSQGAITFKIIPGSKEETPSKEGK

PARD3_3, Q8TEW0 = biological target: PARD3_3, Q8TEW0
PARD3_3, Q8TEW0, sequence (Q8TEW0 582-685): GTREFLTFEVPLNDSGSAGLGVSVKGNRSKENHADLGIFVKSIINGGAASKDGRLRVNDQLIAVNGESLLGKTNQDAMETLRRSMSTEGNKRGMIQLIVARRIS

PTPN13_1, Q12923 = biological target: T8, PTPN13_1, Q12923
T8 sequence (Q12923 1088-1188, limits assumed, looked up): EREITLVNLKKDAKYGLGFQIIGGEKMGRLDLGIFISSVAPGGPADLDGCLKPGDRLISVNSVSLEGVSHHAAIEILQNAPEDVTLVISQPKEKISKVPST

RAPGEF6, Q8TEU7 = biological target: T9, RAPGEF6, Q8TEU7
T9 sequence (Q8TEU7 525-625, limits assumed, looked up): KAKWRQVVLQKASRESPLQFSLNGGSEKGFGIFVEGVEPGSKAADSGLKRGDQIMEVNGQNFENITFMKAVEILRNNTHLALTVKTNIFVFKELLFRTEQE

SCRIB_2, Q14160 = biological target: SCRIB_2, Q14160
SCRIB_2, Q14160, sequence (Q14160 857-960): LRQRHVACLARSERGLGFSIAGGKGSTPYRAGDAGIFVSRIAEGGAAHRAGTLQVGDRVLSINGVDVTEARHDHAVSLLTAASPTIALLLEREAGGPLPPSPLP

SYNJ2BP, P57105 = biological target: T10, SYNJ2BP, P57105
T10 sequence (P57105 8-110, limits assumed, looked up): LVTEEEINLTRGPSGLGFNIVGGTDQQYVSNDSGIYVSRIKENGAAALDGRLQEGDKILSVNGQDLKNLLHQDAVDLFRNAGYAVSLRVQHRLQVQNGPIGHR

TJP1_3, Q07157 = biological target: TJP1_3, Q07157
TJP1_3, Q07157, sequence (Q07157 416-512): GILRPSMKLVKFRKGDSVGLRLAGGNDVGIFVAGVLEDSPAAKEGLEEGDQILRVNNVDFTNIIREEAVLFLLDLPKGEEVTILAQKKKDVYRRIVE

TX1BP3, O14907 = biological target: T11, TX1BP3, O14907
T11 sequence (O14907 10-122, limits assumed, looked up): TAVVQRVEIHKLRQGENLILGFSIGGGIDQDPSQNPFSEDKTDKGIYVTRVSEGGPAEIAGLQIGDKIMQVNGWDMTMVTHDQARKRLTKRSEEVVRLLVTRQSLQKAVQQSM

[1] = plain residues with an end cap or a label only (N-terminal biotin on a linker: gsgsgs; C-terminal amide)
[2] = plain residues with an end cap or a label only (N-terminal biotin on a linker: ttds)

ARHGEF12, Q9NZN5-2, sequence (Q9NZN5 other isoform, or with tags, fused parts or gaps): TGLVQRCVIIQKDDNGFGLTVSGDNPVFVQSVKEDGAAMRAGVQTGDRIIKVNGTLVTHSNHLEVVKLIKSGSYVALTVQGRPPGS

B1: AXIN1_int, O15169 (peptide)
chain: TLSLTDSSVDGIPPYR
pKd (ARHGEF12, Q9NZN5-2; [1]): below the threshold
pKd (CARD11, Q9BXL7; [1]): below the threshold
pKd (CASK, O14936; [1]): below the threshold
pKd (DFNB31_2, Q9P202; [1]): below the threshold
pKd (DLG1_1, Q12959; [1]): below the threshold
pKd (DLG3_2, Q92796; [1]): 4.08
pKd (DLG4_2, P78352; [1]): below the threshold
pKd (FRMPD2_3, Q68DX3; [1]): below the threshold
pKd (GRID2IP_1, A4D2P6; [1]): below the threshold
pKd (GRIP1_2, Q9Y3R0; [1]): below the threshold
pKd (GRIP1_5, Q9Y3R0; [1]): below the threshold
pKd (Inadl_1, Q8NI35; [1]): below the threshold
pKd (Inadl_5, Q8NI35; [1]): below the threshold
pKd (LNX2_2, Q8N448; [1]): below the threshold
pKd (MAGI1_1, Q96QZ7; [1]): below the threshold
pKd (MAGI2_2, Q86UL8; [1]): below the threshold
pKd (MAGI2_4, Q86UL8; [1]): below the threshold
pKd (MAGI3_2, Q5TCQ9; [1]): below the threshold
pKd (MPP7, Q5T2T1; [1]): below the threshold
pKd (PARD3_3, Q8TEW0; [1]): below the threshold
pKd (PTPN13_1, Q12923; [1]): 3.5
pKd (RAPGEF6, Q8TEU7; [1]): below the threshold
pKd (SCRIB_2, Q14160; [1]): below the threshold
pKd (SYNJ2BP, P57105; [1]): 4.52
pKd (TJP1_3, Q07157; [1]): below the threshold
pKd (TX1BP3, O14907; [1]): 3.78

B2: KIR3DL3, Q8N743 (peptide)
chain: PKTPPTDTSV
pKd (ARHGEF12, Q9NZN5-2; [2]): below the threshold
pKd (CARD11, Q9BXL7; [2]): below the threshold
pKd (CASK, O14936; [2]): below the threshold
pKd (DFNB31_2, Q9P202; [2]): below the threshold
pKd (DLG1_1, Q12959; [2]): 4.02
pKd (DLG3_2, Q92796; [2]): 4.14
pKd (DLG4_2, P78352; [2]): 4.22
pKd (FRMPD2_3, Q68DX3; [2]): below the threshold
pKd (GRID2IP_1, A4D2P6; [2]): below the threshold
pKd (GRIP1_2, Q9Y3R0; [2]): below the threshold
pKd (GRIP1_5, Q9Y3R0; [2]): below the threshold
pKd (Inadl_1, Q8NI35; [2]): 3.57
pKd (Inadl_5, Q8NI35; [2]): below the threshold
pKd (LNX2_2, Q8N448; [2]): below the threshold
pKd (MAGI1_1, Q96QZ7; [2]): below the threshold
pKd (MAGI2_2, Q86UL8; [2]): below the threshold
pKd (MAGI2_4, Q86UL8; [2]): below the threshold
pKd (MAGI3_2, Q5TCQ9; [2]): 3.71
pKd (MPP7, Q5T2T1; [2]): below the threshold
pKd (PARD3_3, Q8TEW0; [2]): below the threshold
pKd (PTPN13_1, Q12923; [2]): below the threshold
pKd (RAPGEF6, Q8TEU7; [2]): below the threshold
pKd (SCRIB_2, Q14160; [2]): 4.08
pKd (SYNJ2BP, P57105; [2]): 4.44
pKd (TJP1_3, Q07157; [2]): below the threshold
pKd (TX1BP3, O14907; [2]): 3.67

B3: SLC1A5, Q15758 (peptide)
chain: TVASEKESVM
pKd (ARHGEF12, Q9NZN5-2; [2]): 3.65
pKd (CARD11, Q9BXL7; [2]): below the threshold
pKd (CASK, O14936; [2]): below the threshold
pKd (DFNB31_2, Q9P202; [2]): below the threshold
pKd (DLG1_1, Q12959; [2]): below the threshold
pKd (DLG3_2, Q92796; [2]): 3.55
pKd (DLG4_2, P78352; [2]): below the threshold
pKd (FRMPD2_3, Q68DX3; [2]): below the threshold
pKd (GRID2IP_1, A4D2P6; [2]): below the threshold
pKd (GRIP1_2, Q9Y3R0; [2]): below the threshold
pKd (GRIP1_5, Q9Y3R0; [2]): 3.55
pKd (Inadl_1, Q8NI35; [2]): 3.64
pKd (Inadl_5, Q8NI35; [2]): below the threshold
pKd (LNX2_2, Q8N448; [2]): below the threshold
pKd (MAGI1_1, Q96QZ7; [2]): below the threshold
pKd (MAGI2_2, Q86UL8; [2]): below the threshold
pKd (MAGI2_4, Q86UL8; [2]): below the threshold
pKd (MAGI3_2, Q5TCQ9; [2]): below the threshold
pKd (MPP7, Q5T2T1; [2]): below the threshold
pKd (PARD3_3, Q8TEW0; [2]): below the threshold
pKd (PTPN13_1, Q12923; [2]): below the threshold
pKd (RAPGEF6, Q8TEU7; [2]): below the threshold
pKd (SCRIB_2, Q14160; [2]): below the threshold
pKd (SYNJ2BP, P57105; [2]): 3.51
pKd (TJP1_3, Q07157; [2]): below the threshold
pKd (TX1BP3, O14907; [2]): 3.69

B4: DLGAP4, Q9Y2H0 (peptide)
chain: IYVPEAQTRL
pKd (ARHGEF12, Q9NZN5-2; [2]): 4.1
pKd (CARD11, Q9BXL7; [2]): below the threshold
pKd (CASK, O14936; [2]): below the threshold
pKd (DFNB31_2, Q9P202; [2]): below the threshold
pKd (DLG1_1, Q12959; [2]): below the threshold
pKd (DLG3_2, Q92796; [2]): below the threshold
pKd (DLG4_2, P78352; [2]): below the threshold
pKd (FRMPD2_3, Q68DX3; [2]): below the threshold
pKd (GRID2IP_1, A4D2P6; [2]): below the threshold
pKd (GRIP1_2, Q9Y3R0; [2]): below the threshold
pKd (GRIP1_5, Q9Y3R0; [2]): below the threshold
pKd (Inadl_1, Q8NI35; [2]): below the threshold
pKd (Inadl_5, Q8NI35; [2]): below the threshold
pKd (LNX2_2, Q8N448; [2]): below the threshold
pKd (MAGI1_1, Q96QZ7; [2]): below the threshold
pKd (MAGI2_2, Q86UL8; [2]): below the threshold
pKd (MAGI2_4, Q86UL8; [2]): below the threshold
pKd (MAGI3_2, Q5TCQ9; [2]): below the threshold
pKd (MPP7, Q5T2T1; [2]): below the threshold
pKd (PARD3_3, Q8TEW0; [2]): 3.87
pKd (PTPN13_1, Q12923; [2]): below the threshold
pKd (RAPGEF6, Q8TEU7; [2]): below the threshold
pKd (SCRIB_2, Q14160; [2]): below the threshold
pKd (SYNJ2BP, P57105; [2]): below the threshold
pKd (TJP1_3, Q07157; [2]): below the threshold
pKd (TX1BP3, O14907; [2]): below the threshold

B5: HPV16-E6, P03126 (peptide)
chain: SSRTRRETQL
pKd (ARHGEF12, Q9NZN5-2; [2]): 4.92
pKd (CARD11, Q9BXL7; [2]): below the threshold
pKd (CASK, O14936; [2]): below the threshold
pKd (DFNB31_2, Q9P202; [2]): below the threshold
pKd (DLG1_1, Q12959; [2]): 4.67
pKd (DLG3_2, Q92796; [2]): 4.8
pKd (DLG4_2, P78352; [2]): 4.66
pKd (FRMPD2_3, Q68DX3; [2]): below the threshold
pKd (GRID2IP_1, A4D2P6; [2]): below the threshold
pKd (GRIP1_2, Q9Y3R0; [2]): below the threshold
pKd (GRIP1_5, Q9Y3R0; [2]): below the threshold
pKd (Inadl_1, Q8NI35; [2]): below the threshold
pKd (Inadl_5, Q8NI35; [2]): below the threshold
pKd (LNX2_2, Q8N448; [2]): below the threshold
pKd (MAGI1_1, Q96QZ7; [2]): 3.5
pKd (MAGI2_2, Q86UL8; [2]): 4.87
pKd (MAGI2_4, Q86UL8; [2]): 3.89
pKd (MAGI3_2, Q5TCQ9; [2]): 5.31
pKd (MPP7, Q5T2T1; [2]): below the threshold
pKd (PARD3_3, Q8TEW0; [2]): 3.65
pKd (PTPN13_1, Q12923; [2]): 3.56
pKd (RAPGEF6, Q8TEU7; [2]): 3.66
pKd (SCRIB_2, Q14160; [2]): 4.21
pKd (SYNJ2BP, P57105; [2]): 5.18
pKd (TJP1_3, Q07157; [2]): below the threshold
pKd (TX1BP3, O14907; [2]): 4.87
